T1: CD22 protein expressed on the surface of Daudi cells (human, UniProt P20273 20-847)
T1 construct: whole, on cells; also called human CD22; cell surface CD22
T1 sequence (looked up): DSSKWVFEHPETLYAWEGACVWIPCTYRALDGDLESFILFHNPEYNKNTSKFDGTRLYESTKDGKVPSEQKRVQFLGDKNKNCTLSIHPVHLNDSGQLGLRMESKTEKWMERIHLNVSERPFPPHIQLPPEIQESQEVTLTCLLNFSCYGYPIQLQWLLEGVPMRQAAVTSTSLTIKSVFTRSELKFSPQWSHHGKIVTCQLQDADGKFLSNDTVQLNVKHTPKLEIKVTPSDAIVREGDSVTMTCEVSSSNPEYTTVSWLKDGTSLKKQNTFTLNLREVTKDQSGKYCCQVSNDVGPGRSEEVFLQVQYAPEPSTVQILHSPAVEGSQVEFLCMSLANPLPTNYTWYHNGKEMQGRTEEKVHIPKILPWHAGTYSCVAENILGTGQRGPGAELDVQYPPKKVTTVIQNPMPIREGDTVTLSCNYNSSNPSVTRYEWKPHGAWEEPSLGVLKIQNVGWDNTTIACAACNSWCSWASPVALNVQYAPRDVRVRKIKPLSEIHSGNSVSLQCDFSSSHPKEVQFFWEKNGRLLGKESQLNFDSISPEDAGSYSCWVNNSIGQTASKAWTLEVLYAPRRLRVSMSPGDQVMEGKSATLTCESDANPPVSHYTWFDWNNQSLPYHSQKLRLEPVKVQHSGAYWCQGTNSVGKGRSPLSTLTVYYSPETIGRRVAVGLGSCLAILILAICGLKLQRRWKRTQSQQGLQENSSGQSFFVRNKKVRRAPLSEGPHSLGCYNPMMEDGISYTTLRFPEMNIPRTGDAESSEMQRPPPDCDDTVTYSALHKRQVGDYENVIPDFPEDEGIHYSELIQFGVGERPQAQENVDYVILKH


What was measured:
[1] = target: T1, CD22 protein expressed on the surface …; test: Quantitative confocal immunofluorescence of directly FITC-labelled antibody (5 ug/ml, 45 min on ice) on Daudi cells. paragraph 243 calls these 'RMF surface binding values'.
Method: Selected antiCD22 selected anti-CD22 Mab clones VM1000, VM1001, VM1002, VM1003, VM1004, VM1005, VM1006, VM1007, VM1008, VM1009, VM1010, VM1011, VM1012, VM1013, VM1014, and VM1015 of the invention were directly conjugated to F1TC using the Zenon labeling complex (Molecular Probes) using the manufacturer's recommended procedures. Approximately 1×10e7 Daudi cells were resuspended in PBS containing 5 ug/ml labeled anti-CD22 antibody and incubated for 45 minutes on ice. Cells then washed twice in PBS-FBS solution at 0 C. Cells were then incubated in RPMI 1640 media containing 10% FBS for varying periods at 37 C, harvested and washed in PBS at 0 C. The cells were then briefly fixed in 4% paraformaldehyde solution for 5 min at room temperature, then washed in PBS containing 0.05% Triton X-100. Cell pellets were collected by centrifugation and resupended in a minimal volume of FBS neat, and then applied to glass microscope slides. Prior to analysis, slides were treated with mounting fluid containing the nuclear stain DAPI, then coverslips were applied. Confocal images were recorded using an ACAS Ultima confocal microscope (Meridian Instruments, Inc., Okemos, Mich.) and represent 1-μm sections through the center of a focal plane using a 100× oil immersion objective.
The Anti-CD22 monoclonal antibodies selected clones VM1000, VM1001, VM1002, VM1003, VM1004, VM1005, VM1006, VM1007, VM1008, VM1009, VM1010, VM1011, VM1012, VM1013, VM1014, and VM1015 of the invention were analysed for their ability to be rapidly internalized into the intracellular compartment as judged by immunoflourescent signal on the cell surface versus the intracellular endo cytotic compartment. The antibodies of the invention were compared to BA006H, and humanized version of the murine monoclonal antibody LL2. In this example, FIG. 21A, the anti-CD22 antibodies of the invention bind to CD22 protein expressed on the surface of Daudi cells by approximately 20-fold compared to BA006H as judged by relative mean fluorescence (RMF), and are virtually completely internalized within the cell with 90 minutes, localizing predominantly to within the perinuclear golgi apparatus and associated lysozomes. Shown in FIG. 21B is a chart of the RMF surface binding values obtained in this manner for individual anti-CD22 antibodies of the invention.

[2] = target: T2, recombinant CD22 extracellular domain; test: The sheet does not state the method. The column 'KD (nM)' stands beside the confocal data. The values largely repeat FIGURE 18 (SPR on recombinant CD22 extracellular domain), so the target form is taken from there.
T2 construct: Kept apart from m18, which is cell-surface CD22; also called CD22 (analyte in the BIAcore runs); CD22 ECD
Method: BIAcore 3000, GE Healthcare was used to determine binding curves and kinetic parameters. An anti-human Fc (1.8 mg/ml) was diluted to a concentration of 50 ug/ml in NaOAc buffer (10 mM, pH 4.8) and coupled to the carboxymethylated dextran matrix of a CM-5 sensor chip using the manufacturer's amine-coupling chemistry as described in the BIAcore systems manual. Using the surface preparation wizard aiming for 10000RU, the carboxyl groups on the sensor surfaces were first activated with NHS/EDC followed by the addition of the anti-human Fc. The remaining activated groups were blocked by the injection of 1M ethanolamine. Each of the flow cells was coupled individually. Employing these conditions, the four flow cell surfaces containing 7554-9571 RU of anti-human Fc were prepared. In preliminary experiments, it was determine that three injections (15 ul at 30 ul/min) 100 mM H₃PO₄/0.05% CHAPS would efficiently remove the bound immunoglobulin and preserve the binding capacity of the immobilized anti-human Fc.
Experiments were performed on the BIAcore 3000 at 25° C. and a flow rate of 30 ul/min. The antibody candidate was dissolved in HBS (10 mM HEPES with 0.15M NaCl, 3.4 mM EDTA, and 0.05% surfactant P20 at pH 7.4) at 5 ug/ml. The analyte, CD22, was dissolved in HBS at 0.25, 0.125, 0.062, 0.031 and 0.015 ug/ml. 3*30 ul of 5 ug/ml of antibody BA001 was flowed over its respective flow cell followed by injections of 240 ul of each CD22 concentration at 30 ul/min (association phase) and an uninterrupted 1200 seconds of buffer flow (dissociation phase). The surface of the chip was regenerated by three sequential injections of 15 ul each with 100 m M H₃PO₄/0.05% CHAPS. The injections of HBS serve as a reference (blank sensogram) for the subtraction of bulk refractive indices for analysis. Using the 1:1 model in BIAevaluation 4.1, both a local fit and global fit was done for both dissociation (kd, [s−1] and association (ka, [M⁻¹s⁻¹]) and the dissociation constant (KD, [M]) calculated (kd/ka).

| Binder | RMF (Daudi Internalization by Confocal) [1] | Kd [2] |
| --- | --- | --- |
| VM1006 (antibody, V domains shown, Humanized antibody with human constant region; also called anti-CD22 Mab clone VM1006) VH: QVQLVQSGAEVKKPGASVKVSCKASGYVFTSYWLHWIRQSPSRGLEWLGYINPRNDYTEYNRIFKGRFVFSLDTSVSTAYLQICSLKAEDTAVYYCARRGITTFYWGQG VL: DIQMTQSPSSLSASVGDRVTITCKSSQSVLYSAVEKNYLAWYQQKPGKAPKLLIYWASTRERGIPDRFSGSGSGTDFTLTISRLEPEDFAVYYCKQYLSSWTFGQG | ~200 RMF | – |
| VM1007 (antibody, V domains shown, Humanized antibody with human constant region; also called anti-CD22 Mab clone VM1007) VH: QVQLVQSGAEVKKPGASVKVSCKASGYVFTSYWLHWVRQARGQRLEWIGYINPRNDYTEYNRIFKGRVTITADKSTSTAYMELSSLRSEDTAVYYCARRGITTFYWGQG VL: AIQLTQSPSSLSASVGDRVTITCKSSQSVLYSAVEKNYLAWYQQKPGKAPKLLIYWASTRERGVPSRFSGSGSGTDFTFTISSLEAEDAATYYCKQYLSSWTFGQG | ~200 RMF | 1 nM |
| VM1000 (antibody, V domains shown, Humanized antibody with human constant region; also called anti-CD22 Mab clone VM1000) VH: QVQLVQSGAEVKKPGASVKVSCKASGYVFTSYWLHWIRQSPSRGLEWLGYINPRNDYTEYNRIFKGRLTISKDTSKNQVVLTMTNMDPVDTATYYCARRGITTFYWGQG VL: EIVLTQSPATLSLSPGERATLSCKSSQSVLYSAVEKNYLAWYQQKPGKAPKLLIYWASTRERGVPSRFSGSGSGTDFTFTISSLQPEDIATYYCKQYLSSWTFGQG | ~100 RMF | 0.5 nM |
| VM1002 (antibody, V domains shown, Humanized antibody with human constant region; also called anti-CD22 Mab clone VM1002) VH: EVQLVQSGAEVKKPGESLRISCKGSGYVFTSYWLHWVRQAPGQGLEWMGYINPRNDYTEYNRIFKGRVTITADKSTSTAYMELSSLRSEDTAVYYCARRGITTFYWGQG VL: EIVLTQSPATLSLSPGERATLSCKSSQSVLYSAVEKNYLAWYQQKPGQAPRLLIYWASTRERGIPDRFSGSGSGTDFTLTISRLEPEDFAVYYCKQYLSSWTFGQG | ~150 RMF | 0.33 nM |
| VM1004 (antibody, V domains shown, Humanized antibody with human constant region; also called anti-CD22 Mab clone VM1004) VH: EVQLVQSGAEVKKPGATVKISCKVSGYVFTSYWLHWIRQSPSRGLEWLGYINPRNDYTEYNRIFKGRFVFSLDTSVSTAYLQICSLKAEDTAVYYCARRGITTFYWGQG VL: EIVLTQSPATLSLSPGERATLSCKSSQSVLYSAVEKNYLAWYQQKPGKAPKLLIYWASTRERGIPDRFSGSGSGTDFTLTISRLEPEDFAVYYCKQYLSSWTFGQG | ~100 RMF | 0.8 nM |
| VM1011 (antibody, V domains shown, Humanized antibody with human constant region; also called anti-CD22 Mab clone VM1011) VH: QVQLQESGPGLVKPSQTLSLTCTVSGYVFTSYWLHWIRQPPGKGLEWIGYINPRNDYTEYNRIFKGRVTITADKSTSTAYMELSSLRSEDTAVYYCARRGITTFYWGQG VL: EIVLTQSPATLSLSPGERATLSCKSSQSVLYSAVEKNYLAWYQQKPGQAPRLLIYWASTRERGIPDRFSGSGSGTDFTLTISRLEPEDFAVYYCKQYLSSWTFGQG | ~200 RMF | – |
| VM1001 (antibody, V domains shown, Humanized antibody with human constant region; also called anti-CD22 Mab clone VM1001) VH: QVQLVQSGAEVKKPGASVKVSCKASGYVFTSYWLHWIRQSPSRGLEWLGYINPRNDYTEYNRIFKGRLTISKDTSKNQVVLTMTNMDPVDTATYYCARRGITTFYWGQG VL: EIVLTQSPATLSLSPGERATLSCKSSQSVLYSAVEKNYLAWYQQKPGQAPRLLIYWASTRERGIPDRFSGSGSGTDFTLTISRLEPEDFAVYYCKQYLSSWTFGQG | ~100 RMF | 0.22 nM |
| VM1003 (antibody, V domains shown, Humanized antibody with human constant region; also called anti-CD22 Mab clone VM1003) VH: EVQLVQSGAEVKKPGATVKISCKVSGYVFTSYWLHWIRQSPSRGLEWLGYINPRNDYTEYNRIFKGRFVFSLDTSVSTAYLQICSLKAEDTAVYYCARRGITTFYWGQG VL: EIVLTQSPATLSLSPGERATLSCKSSQSVLYSAVEKNYLAWYQQKPGQAPRLLIYWASTRERGIPDRFSGSGSGTDFTLTISRLEPEDFAVYYCKQYLSSWTFGQG | ~150 RMF | 0.34 nM |

— US20150086562A1 (BIOATLA, published 2015)
